B1: A-kinase anchor protein 3 (Homo sapiens), O75969 (parent)
chain: MSEKVDWLQSQNGVCKVDVYSPGDNQAQDWKMDTSTDPVRVLSWLRRDLEKSTAEFQDVRFKPGESFGGETSNSGDPHKGFSVDYYNTTTKGTPERLHFEMTHKEIPCQGPRAQLGNGSSVDEVSFYANRLTNLVIAMARKEINEKIDGSENKCVYQSLYMGNEPTPTKSLSKIASELVNETVSACSRNAAPDKAPGSGDRVSGSSQSPPNLKYKSTLKIKESTKERQGPDDKPPSKKSFFYKEVFESRNGDYAREGGRFFPRERKRFRGQERPDDFTASVSEGIMTYANSVVSDMMVSIMKTLKIQVKDTTIATILLKKVLLKHAKEVVSDLIDSFLRNLHSVTGTLMTDTQFVSAVKRTVFSHGSQKATDIMDAMLRKLYNVMFAKKVPEHVRKAQDKAESYSLISMKGMGDPKNRNVNFAMKSETKLREKMYSEPKSEEETCAKTLGEHIIKEGLTLWHKTQQKECKSLGFQHAAFEAPNTQRKPASDISFEYPEDIGNLSLPPYPPEKPENFMYDSDSWAEDLIVSALLLIQYHLAQGGRRDARSFVEAAGTTNFPANEPPVAPDESCLKSAPIVGDQEQAEKKDLRSVFFNFIRNLLSETIFKRDQSPEPKVPEQPVKEDRKLCERPLASSPPRLYEDDETPGALSGLTKMAVSQIDGHMSGQMVEHLMNSVMKLCVIIAKSCDASLAELGDDKSGDASRLTSAFPDSLYECLPAKGTGSAEAVLQNAYQAIHNEMRGTSGQPPEGCAAPTVIVSNHNLTDTVQNKQLQAVLQWVAASELNVPILYFAGDDEGIQEKLLQLSAAAVDKGCSVGEVLQSVLRYEKERQLNEAVGNVTPLQLLDWLMVNL
B2: Ropporin-1B (Homo sapiens), Q9BZX4 (parent)
chain: MAQTDKPTCIPPELPKMLKEFAKAAIRAQPQDLIQWGADYFEALSRGETPPVRERSERVALCNWAELTPELLKILHSQVAGRLIIRAEELAQMWKVVNLPTDLFNSVMNVGRFTEEIEWLKFLALACSALGVTITKTLKIVCEVLSCDHNGGLPRIPFSTFQFLYTYIAEVDGEICASHVSRMLNYIEQEVIGPDGLITVNDFTQNPRVWLE

Variants of: B1
Details: with rop1b_human ROPN1B, Q9BZX4
In the case of L131P, the “effect of a mutation on the interaction” value is reported as “decreasing interaction”.

Variants of: B1
Details: with kap2_human PRKAR2A
In the case of L131P, the “effect of a mutation on the interaction” value is reported as “decreasing interaction”.

Variants of: B2
Details: with akap3_human AKAP3, O75969
In the case of L18A, the “effect of a mutation on the interaction” value is reported as “decreasing interaction”.
